In patent KR20230066722A (dated 2023):

Target: S275F RSV F protein (Synagis-resistant RSV antigen) (respiratory syncytial virus, UniProt P03420 26-524)
Assay: ratio of the ELISA Kd values, reference 11L

B1: RSV Protein-1A12 Ab (antibody, V domains shown)
VH: EVQLVESGGGLVQPGGSLRLSCAASGFTFTSSWMSWVRQAPGKGLEWVSEIDGYNGSTYYADSVKGRFTISRDNSKNTLYLQMNSLRAEDTAVYYCARTVPWWGMDYWGQGTLVTVSS
VL: DIQMTQSPSSLSASVGDRVTITCRASQNISNYLAWYQQKPGKAPKLLIYLASSLESGVPSRFSGSGSGTDFTLTISSLQPEDFATYYCQQANSPPRTFGQGTKVEIK
notes: The ELISA detected the antibody with anti-human IgG Fc-HRP, so a human Fc is implied; also called 항체 1A12; 1A12 항체
fold higher affinity for S275F than for 11L: ~15 배 (fold)
